Among the data in patent US20260022175A1 are Kd values, retold here.

Holding throughout (test): SPR Biacore 8k+ 25C, antibody captured, FcγR analyte; mean
For orientation: SPR reads the build-up and loss of mass on a sensor chip optically.

For test [1], the target named is human FcγRIIb extracellular domain with C-terminal His tag (human) (UniProt P31994).
For test [2], the target named is cynomolgus monkey FcγRIIa1 extracellular domain with His tag (cynomolgus monkey).
In test [3] the target is human FcγRIa extracellular domain with C-terminal His tag (human) (UniProt P12314).
Test [4] concerns the target cynomolgus monkey FcγRIIIa(S) extracellular domain with His tag (cynomolgus monkey) (UniProt Q8SPW2).
Test [5] has as its target human FcγRIIa(H) extracellular domain with C-terminal His tag (human) (UniProt P12318).
Test [6] deals with cynomolgus monkey FcγRIIb extracellular domain with His tag (cynomolgus monkey).
Test [7] addresses human FcγRIIIa(F) extracellular domain with C-terminal His tag (human) (UniProt P08637).
Test [8] has as its target human FcγRIIa(R) extracellular domain with C-terminal His tag (human) (UniProt P12318).
For test [9], the target named is cynomolgus monkey FcγRIa extracellular domain with His tag (cynomolgus monkey).
In test [10] the target is cynomolgus monkey FcγRIIIa(R) extracellular domain with His tag (cynomolgus monkey) (UniProt Q8SPW2).
Test [11] has as its target human FcγRIIIa(V) extracellular domain with C-terminal His tag (human) (UniProt P08637).
Test [12] deals with cynomolgus monkey FcγRIIa2 extracellular domain with His tag (cynomolgus monkey).
Test [13] has as its target cynomolgus monkey FcγRIIa3 extracellular domain with His tag (cynomolgus monkey).

cynomolgus monkey FcγRIIa3 extracellular domain with His tag (cynomolgus monkey), sequence (chain, as listed by the source): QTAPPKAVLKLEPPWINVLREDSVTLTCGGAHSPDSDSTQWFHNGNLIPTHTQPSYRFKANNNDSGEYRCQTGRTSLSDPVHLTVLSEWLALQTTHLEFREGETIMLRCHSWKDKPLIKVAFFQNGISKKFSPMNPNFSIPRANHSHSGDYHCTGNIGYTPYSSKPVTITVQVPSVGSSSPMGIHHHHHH
human FcγRIIIa(V) extracellular domain with C-terminal His tag (human), sequence (P08637 other isoform, or with tags, fused parts or gaps): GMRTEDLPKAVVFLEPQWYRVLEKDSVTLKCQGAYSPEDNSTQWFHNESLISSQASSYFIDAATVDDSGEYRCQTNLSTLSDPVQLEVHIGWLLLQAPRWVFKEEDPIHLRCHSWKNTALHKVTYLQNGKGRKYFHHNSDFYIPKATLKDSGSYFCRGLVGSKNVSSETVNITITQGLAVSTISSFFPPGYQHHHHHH
cynomolgus monkey FcγRIIa2 extracellular domain with His tag (cynomolgus monkey), sequence (chain, as listed by the source): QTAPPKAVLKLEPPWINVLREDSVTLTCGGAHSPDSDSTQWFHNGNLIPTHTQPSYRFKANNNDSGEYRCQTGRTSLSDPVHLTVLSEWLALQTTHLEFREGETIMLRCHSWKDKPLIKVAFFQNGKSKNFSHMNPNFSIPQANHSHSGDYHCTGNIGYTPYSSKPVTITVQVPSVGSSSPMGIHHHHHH
cynomolgus monkey FcγRIa extracellular domain with His tag (cynomolgus monkey), sequence (P12314 other isoform, or with tags, fused parts or gaps): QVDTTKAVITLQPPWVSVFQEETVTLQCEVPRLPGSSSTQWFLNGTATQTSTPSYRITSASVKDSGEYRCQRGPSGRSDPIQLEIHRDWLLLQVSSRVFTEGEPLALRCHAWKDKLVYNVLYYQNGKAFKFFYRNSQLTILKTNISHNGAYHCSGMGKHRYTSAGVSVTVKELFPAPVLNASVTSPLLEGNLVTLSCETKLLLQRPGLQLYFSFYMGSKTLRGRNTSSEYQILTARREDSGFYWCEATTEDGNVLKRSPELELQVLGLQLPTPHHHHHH
cynomolgus monkey FcγRIIIa(R) extracellular domain with His tag (cynomolgus monkey), sequence (Q8SPW2 other isoform, or with tags, fused parts or gaps): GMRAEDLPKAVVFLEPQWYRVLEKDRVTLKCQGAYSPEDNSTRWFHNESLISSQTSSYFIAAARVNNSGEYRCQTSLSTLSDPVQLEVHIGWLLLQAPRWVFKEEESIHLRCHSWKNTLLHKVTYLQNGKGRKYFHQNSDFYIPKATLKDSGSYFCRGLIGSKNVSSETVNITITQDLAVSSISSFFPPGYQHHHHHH
human FcγRIa extracellular domain with C-terminal His tag (human), sequence (P12314 other isoform, or with tags, fused parts or gaps): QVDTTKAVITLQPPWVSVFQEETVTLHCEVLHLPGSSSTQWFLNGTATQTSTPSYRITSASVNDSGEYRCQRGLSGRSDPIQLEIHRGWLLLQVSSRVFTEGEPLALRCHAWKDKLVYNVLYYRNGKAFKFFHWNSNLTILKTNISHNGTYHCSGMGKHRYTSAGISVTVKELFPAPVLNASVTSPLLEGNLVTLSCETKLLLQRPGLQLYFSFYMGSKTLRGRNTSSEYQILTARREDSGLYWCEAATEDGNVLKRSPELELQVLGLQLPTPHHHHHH
cynomolgus monkey FcγRIIb extracellular domain with His tag (cynomolgus monkey), sequence (chain, as listed by the source): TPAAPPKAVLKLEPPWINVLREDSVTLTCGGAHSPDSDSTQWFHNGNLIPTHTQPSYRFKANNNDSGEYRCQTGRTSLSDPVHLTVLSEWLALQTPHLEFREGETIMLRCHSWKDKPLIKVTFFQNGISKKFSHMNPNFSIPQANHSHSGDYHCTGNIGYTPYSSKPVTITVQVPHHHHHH
cynomolgus monkey FcγRIIa1 extracellular domain with His tag (cynomolgus monkey), sequence (chain, as listed by the source): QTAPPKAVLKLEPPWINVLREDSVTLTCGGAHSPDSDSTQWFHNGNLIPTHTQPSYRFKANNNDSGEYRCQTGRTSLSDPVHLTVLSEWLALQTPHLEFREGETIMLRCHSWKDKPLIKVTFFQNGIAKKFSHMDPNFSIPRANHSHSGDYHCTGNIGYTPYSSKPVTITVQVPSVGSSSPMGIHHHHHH
human FcγRIIa(R) extracellular domain with C-terminal His tag (human), sequence (P12318 34-217 H167R): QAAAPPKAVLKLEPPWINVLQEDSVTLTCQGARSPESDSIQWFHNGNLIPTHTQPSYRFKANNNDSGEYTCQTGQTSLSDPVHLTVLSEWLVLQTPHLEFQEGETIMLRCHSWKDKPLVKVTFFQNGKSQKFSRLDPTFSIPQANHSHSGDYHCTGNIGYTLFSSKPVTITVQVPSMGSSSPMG
cynomolgus monkey FcγRIIIa(S) extracellular domain with His tag (cynomolgus monkey), sequence (Q8SPW2 other isoform, or with tags, fused parts or gaps): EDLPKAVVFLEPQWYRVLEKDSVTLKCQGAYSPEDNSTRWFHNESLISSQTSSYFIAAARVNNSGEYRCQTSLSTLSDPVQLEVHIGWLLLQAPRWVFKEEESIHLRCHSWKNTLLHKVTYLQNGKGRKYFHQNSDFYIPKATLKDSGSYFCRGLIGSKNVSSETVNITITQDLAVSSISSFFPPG
human FcγRIIb extracellular domain with C-terminal His tag (human), sequence (P31994 other isoform, or with tags, fused parts or gaps): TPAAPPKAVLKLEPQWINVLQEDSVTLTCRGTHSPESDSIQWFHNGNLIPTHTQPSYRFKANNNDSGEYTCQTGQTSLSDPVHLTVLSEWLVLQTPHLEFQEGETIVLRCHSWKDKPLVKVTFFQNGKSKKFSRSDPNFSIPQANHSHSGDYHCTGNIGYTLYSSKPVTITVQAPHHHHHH
human FcγRIIIa(F) extracellular domain with C-terminal His tag (human), sequence (P08637 other isoform, or with tags, fused parts or gaps): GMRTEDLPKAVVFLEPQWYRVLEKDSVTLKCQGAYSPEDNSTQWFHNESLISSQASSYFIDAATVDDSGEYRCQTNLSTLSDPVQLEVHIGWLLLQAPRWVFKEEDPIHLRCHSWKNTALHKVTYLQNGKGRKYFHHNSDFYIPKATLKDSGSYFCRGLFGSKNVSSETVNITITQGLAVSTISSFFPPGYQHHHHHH
human FcγRIIa(H) extracellular domain with C-terminal His tag (human), sequence (P12318 34-217): as the sequence (P12318 34-217 H167R) above, with R134H counted along it

In general, Kd refers to the free concentration of one partner at which half of the binding sites on the other are occupied at equilibrium, for simple one-to-one binding. On to “Tremfya (Janssen Pharmaceutical K.K) (antibody)”, for which the Kd in [1] came to 16500 nM; in test [2], 6800 nM; in test [3], 0.0908 nM; in test [4] it was 497 nM; in [5] it was 1250 nM; in [6] it was 5670 nM. Also, the Kd in [7] worked out at 9090 nM; in test [8], 1880 nM; in test [9] it was 0.0109 nM; in test [10], 579 nM; in [11], 1020 nM; in test [12] it was 7530 nM. In [13], the Kd came out at 39800 nM.
